Assay results reported in patent publication US20230133381A1.

Columns and labels:
[1] = molecular target: human DR5 (human); assay: TRAIL competitive ELISA: human DR5 coated on the plate (0.1 ug/ml), TRAIL titrated against the binding of control antibody AP, bound AP detected with anti-human Fc-HRP, ABTS, absorbance at 405 nm
[2] = molecular target: human DR5 (human); assay: ELISA: human DR5 coated on the plate (10 ng/ml), antibody titrated, anti-human Fc-HRP, TMB, absorbance at 450 nm
[3] = molecular target: human DR5 (human); assay: SPR (BIAcore X100), human DR5 on CM5 chip, IgG injected, 1:1 Langmuir model

Molecule	IC50 (read off the curve) [1]	EC50 (read off the curve) [2]	Kd [3]	koff [3]	kon [3]
TRAIL protein (from UniProt P50591 114-281) (ligand)	5000 pM	–	–	–	–
DA30 (antibody, V domains shown) VH: AVTLDESGGGLQTPGGGLSLVCKGSGFTFSSFNMLWVRQAPGKGLEWVAGIGKSDRYTGYGSAVKGRATISRDDGQSTAYLQMNSLRAEDTGTYYCVKDAGSGCGSGGWTGACIDTWGHGTEVIVSS VL: LTQPSSVSANLGGTVEITCSGGDSYAGSYYYGWYQQKAPGSAPVTVIYNNNNRPSNIPSRFSGSTSGSTATLTITGVQAEDEATYYCGSRDSSYVGIFGAGTTLTVL	–	0.02 µg/mL	77.4 pM	7.97e-05 s⁻¹	1.03e+06 M⁻¹ s⁻¹
DA31 (antibody, V domains shown) VH: AVTLDESGGGLQTPGGGLSLVCKGSGFTFSSFNMLWVRQAPGKGLEWVAGIGKSDRYTGYGSAVKGRATISRDDGQSTARLQMNSLRAEDTGTYYCVKDAGSGCGSGGWTGACIDTWGHGTEVIVSS VL: LTQPSSVSANLGGTVEITCSGGDSYAGSYYYGWYQQKAPGSAPVTVIYNNNNRPSNIPSRFSGSTSGSTATLTITGVQAEDEATYFCGSRDSSYVGIFGAGTTLTVL	–	0.02 µg/mL	70.6 pM	8.79e-05 s⁻¹	1.24e+06 M⁻¹ s⁻¹
DA33 (antibody, V domains shown) VH: AVTLDESGGGLQTPGGGLSLVCKGSGFTFSSFNMLWVRQAPGKGLEWVAGIGKSDRYTGYGSAVKGRATISRDDGQSTARLQLNNLRAEDTAVYYCVKDAGSGCGSGGWTGACIDTWGHGTEVIVSS VL: LTQPSSVSANLGGTVEITCSGGDSYAGSYYYGWYQQKAPGSAPVTVIYNNNNRPSNIPSRFSGSTSGSTATLTITGVQAEDEATYFCGSRDSSYVGIFGAGTTLTVL	–	0.02 µg/mL	78.8 pM	9.77e-05 s⁻¹	1.24e+06 M⁻¹ s⁻¹
DA5 (antibody, V domains shown) VH: EVQLVESGGGLVQPGGSLRLSCAASGFTFSSFNMLWVRQAPGKGLEWVAGIGKSDRYTGYGSAVKGRFTISRDDSKSTAYLQMNSLRAEDTAVYYCVRDAGSGCGSGGWTGACIDTWGQGTLVTVSS VL: DIQMTQSPSSLSASVGDRVTITCSGGDSYAGSYYYGWYQQKPGKAPKTLIYNNNNRPSGVPSRFSGSTSGTDFTLTISSLQPEDFATYYCGSRDSSYVGIFGQGTKVEIK	–	0.03 µg/mL	< 8.33 pM	< 1e-05 s⁻¹	1.2e+06 M⁻¹ s⁻¹
